Laboratory results published in patent CN114716553A (BEIJING KENUO XINCHENG TECH CO LTD, dated 2022).

Columns and labels:
[1] = target: T1, 人LILRB4 (on LILRB4-positive cells) (human, UniProt Q8NHJ6 22-448); assay: flow cytometry on RPMI-8226 cells
T1 construct: whole, on cells; also called 人LILRB4阳性细胞THP-1细胞; 人LILRB4阳性细胞RPMI-8226细胞

[2] = target: T1, 人LILRB4 (on LILRB4-positive cells); assay: cell-based or functional assay
[3] = target: T2, 人LILRB4重组蛋白(购于义翘，Cat.16742-H08H) (human, UniProt Q8NHJ6 22-259); assay: BLI (Octet QKe), antibody captured on AHC probe, antigen 100 nM, 1:1 Langmuir fit
T2 construct: Bought protein; also called human LILRB4 recombinant protein

[4] = target: T1, 人LILRB4 (on LILRB4-positive cells); assay: flow cytometry on THP-1 cells
[5] = target: T3, 人LILRB4的重组蛋白 (phage library screening antigen) (human, UniProt Q8NHJ6 22-259, limits assumed); assay: solid phase screening of phage library
T3 construct: May be the same protein as the immunogen or as m14

EC50 [1] [nM]	EC50 of T cell activation (LILRB4 Effector Reporter cells with APOE/TCR Activator/CHO cells, luciferase) [2] [nM]	Kd [3] [nM]	koff [3] [s⁻¹]	kon [3] [M⁻¹ s⁻¹]	EC50 [4] [nM]	binding result [5]	Binder
0.227	0.094	0.721	0.00022	305000	1.43	–	对照抗体193 (antibody, IgG1, V domains shown, Variable regions cloned into vectors with human kappa / IgG1 constant regions and expressed in HEK293; also called 同靶点对照抗体193) VH: EVQLVESGGGLVQPGGSLRLSCAASGFSLSSSYWISWVRQAPGKGLEWIGSIDSGSVGITYYATWVKGRFTISRDNSKNTLYLQMNSLRAEDTAVYYCARHGDNWALDLWGQGTLVTVSS VL: DIQMTQSPSTLSASVGDRVTITCRASQSINSWLAWYQQKPGKAPKLLIYKASTLASGVPSRFSGSGSGTEFTLTISSLQPDDAATYYCQHGYIRGDLDNVFGGGTKVEIK
–	–	–	–	–	–	binds	B2 (VHH, also called 噬菌体展示的纳米抗体B2) VHH: QVQLQESGGGPVQAGGSLRLSCAASEYSYRRHCMAWFRQAPGKEREGVATIYTGGGITRYADSVKGRFTISQDNAKNTVYLQMNSLKPEDTAMYYCAADIASRACVTDPFPLERARFSAWGQGTQVTVSS

Continued, binder first:

Binder	EC50 [1] [nM]	EC50 of T cell activation (LILRB4 Effector Reporter cells with APOE/TCR Activator/CHO cells, luciferase) [2] [nM]	Kd [3] [nM]	koff [3] [s⁻¹]	kon [3] [M⁻¹ s⁻¹]	EC50 [4] [nM]	binding result [5]
hzD2-1 (Fc fusion, Humanised VHH of D2 fused to human Fc, expressed in HEK293; also called D2人源化分子hzD2-1; hzD2-1人源化抗体; not shown: human Fc (hFc) from the expression vector) EVQLVESGGGLVQPGGSLRLSCAASGFTVSSDYMGWFRQAPGKEREGVACINTNGGETYHANSVSGRFTISRDNSKNTLYLQMNSLRAEDTAVYYCARGRTNPDSYGGSRCLLAPEYTYWGQGTLVTVSS	0.221	–	1.03	0.000172	167000	–	–
hzD2-2 (Fc fusion, Humanised VHH of D2 fused to human Fc, expressed in HEK293; also called D2人源化分子hzD2-2; hzD2-2人源化抗体; not shown: human Fc (hFc) from the expression vector) EVQLVESGGGLVQPGGSLRLSCAASGYTASSDYMGWFRQAPGKEREGVACINTNGGETYHANSVSGRFTISRDNSKNTLYLQMNSLRAEDTAVYYCARGRTNPDSYGGSRCLLAPEYTYWGQGTLVTVSS	0.215	–	0.948	0.000175	185000	–	–
C3 (VHH, also called 噬菌体展示的纳米抗体C3) VHH: QVQLQESGGGLVQAGGSLRLSCVASEYIYTRCNMAWYRQAPGKERELVSAFDIGDTLYYADSVKGRFTISQDNAKNTVYLQMNSLKPEDTAMYYCNTVGVKPGGGSWCFNPDYWGQGTQVTVSS	–	–	–	–	–	–	binds
F1 (VHH, also called 噬菌体展示的纳米抗体F1) VHH: QVQLQESGGGLVQAGGSLRLSCAASEYSYRRHCMAWFRQAPGKEREGVATIYTGGGITRYADSVKGRFTISQDNAKNTVYLQMNSLKPEDTAMYYCAADIASRACVTDPFPLERARFSAWGQGTQVTVSS	–	–	–	–	–	–	binds
